What was measured:
HaLF [1] = molecular target: T1, HaLF (Heterobasidion irregulare, UniProt W4KBR7); test: spectrophotometric oxidation at […] nm, hyperbola or Hill fit; assay type: biochemical; conditions: read-out: HaLF / KM; 100 mM citrate-phosphate pH 4; air O2
T1 sequence (W4KBR7 21-648): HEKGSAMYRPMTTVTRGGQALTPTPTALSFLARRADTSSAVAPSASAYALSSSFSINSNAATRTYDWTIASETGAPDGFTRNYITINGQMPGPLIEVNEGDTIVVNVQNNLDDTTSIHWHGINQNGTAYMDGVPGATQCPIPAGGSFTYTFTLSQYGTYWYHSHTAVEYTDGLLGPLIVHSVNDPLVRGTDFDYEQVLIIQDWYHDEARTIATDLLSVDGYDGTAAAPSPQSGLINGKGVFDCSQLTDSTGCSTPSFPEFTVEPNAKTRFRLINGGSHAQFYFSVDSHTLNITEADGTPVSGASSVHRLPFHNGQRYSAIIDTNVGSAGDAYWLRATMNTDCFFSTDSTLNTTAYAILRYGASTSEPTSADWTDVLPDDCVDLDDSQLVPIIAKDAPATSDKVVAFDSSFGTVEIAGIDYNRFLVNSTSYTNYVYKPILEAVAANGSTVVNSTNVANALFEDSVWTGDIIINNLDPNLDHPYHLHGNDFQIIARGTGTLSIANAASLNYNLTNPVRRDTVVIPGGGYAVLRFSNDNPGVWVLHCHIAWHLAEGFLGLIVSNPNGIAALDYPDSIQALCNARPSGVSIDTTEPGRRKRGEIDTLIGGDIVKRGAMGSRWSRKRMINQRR

HaLF [2] = molecular target: T2, HaLF (Heterobasidion irregulare, UniProt W4KBR7, A247E/F364D); test: as above; assay type: biochemical; conditions: read-out: HaLFA227E, F344D / KM; 100 mM citrate-phosphate pH 4; air O2
T2 sequence (W4KBR7 21-648 A247E/F364D): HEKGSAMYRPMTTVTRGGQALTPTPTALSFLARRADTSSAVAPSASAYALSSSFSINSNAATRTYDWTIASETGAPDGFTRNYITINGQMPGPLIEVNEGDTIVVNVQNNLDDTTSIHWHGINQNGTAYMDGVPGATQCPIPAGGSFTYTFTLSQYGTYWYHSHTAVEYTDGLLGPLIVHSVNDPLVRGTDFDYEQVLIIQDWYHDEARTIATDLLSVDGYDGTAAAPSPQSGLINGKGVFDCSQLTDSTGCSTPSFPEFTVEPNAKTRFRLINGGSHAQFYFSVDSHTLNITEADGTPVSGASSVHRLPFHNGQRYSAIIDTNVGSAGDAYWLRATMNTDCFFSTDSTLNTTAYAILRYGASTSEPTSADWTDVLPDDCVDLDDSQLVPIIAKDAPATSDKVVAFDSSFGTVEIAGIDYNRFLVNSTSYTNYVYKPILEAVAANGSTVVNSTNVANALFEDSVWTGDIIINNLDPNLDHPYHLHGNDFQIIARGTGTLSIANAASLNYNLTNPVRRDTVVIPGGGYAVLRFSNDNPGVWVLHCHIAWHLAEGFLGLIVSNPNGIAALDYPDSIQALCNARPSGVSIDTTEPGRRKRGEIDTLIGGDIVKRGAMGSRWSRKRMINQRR

COc1cccc(OC)c1O = test: purified protein; assay type: biochemical, Heterobasidion irregulare; conditions: 100 mM citrate-phosphate pH 5, air O2
COc1ccccc1O = test: purified protein; assay type: biochemical, Heterobasidion irregulare; conditions: 100 mM citrate-phosphate pH 5, air O2
[3] = test system: CCn1c(=NN=c2sc3cc(S(=O)(=O)O)ccc3n2CC)sc2cc(S(=O)(=O)O)ccc21; test: purified protein; conditions: 100 mM citrate-phosphate pH 4, air O2
purified protein [4] = substrate: COc1cccc(OC)c1O; test: purified protein; assay type: biochemical, Heterobasidion irregulare; conditions: 100 mM citrate-phosphate pH 5, air O2; remark: listed apart in the source
purified protein [5] = substrate: COc1ccccc1O; test: purified protein; assay type: biochemical, Heterobasidion irregulare; conditions: 100 mM citrate-phosphate pH 5, air O2; remark: listed apart in the source
purified protein [6] = substrate: CCn1c(=NN=c2sc3cc(S(=O)(=O)O)ccc3n2CC)sc2cc(S(=O)(=O)O)ccc21; test: purified protein; conditions: 100 mM citrate-phosphate pH 4, air O2; remark: listed apart in the source
purified protein [7] = substrate: Nc1ccccc1N; test: purified protein; conditions: 100 mM citrate-phosphate pH 4, air O2

CN(C)c1ccc(N)cc1 [DMPD, N,N-Dimethyl-1,4-phenylenediamine]
Km (HaLF [1]): 8 ± 0.4 mM
Km (HaLF [2]): 9 ± 0.8 mM

HaLF (Heterobasidion irregulare TC 32-1; A247E/F364D)
Km (COc1cccc(OC)c1O): 3.8 ± 0.3 mM
kcat (COc1cccc(OC)c1O): 0.87 ± 0.03 s⁻¹
Km (COc1ccccc1O): 31 ± 4 mM
kcat (COc1ccccc1O): 0.3 ± 0.02 s⁻¹
Km [3]: 11 ± 1.5 mM
kcat [3]: 16 ± 1 s⁻¹

B1: HaLF (Heterobasidion irregulare TC 32-1) (protein)
chain: HEKGSAMYRPMTTVTRGGQALTPTPTALSFLARRADTSSAVAPSASAYALSSSFSINSNAATRTYDWTIASETGAPDGFTRNYITINGQMPGPLIEVNEGDTIVVNVQNNLDDTTSIHWHGINQNGTAYMDGVPGATQCPIPAGGSFTYTFTLSQYGTYWYHSHTAVEYTDGLLGPLIVHSVNDPLVRGTDFDYEQVLIIQDWYHDEARTIATDLLSVDGYDGTAAAPSPQSGLINGKGVFDCSQLTDSTGCSTPSFPEFTVEPNAKTRFRLINGGSHAQFYFSVDSHTLNITEADGTPVSGASSVHRLPFHNGQRYSAIIDTNVGSAGDAYWLRATMNTDCFFSTDSTLNTTAYAILRYGASTSEPTSADWTDVLPDDCVDLDDSQLVPIIAKDAPATSDKVVAFDSSFGTVEIAGIDYNRFLVNSTSYTNYVYKPILEAVAANGSTVVNSTNVANALFEDSVWTGDIIINNLDPNLDHPYHLHGNDFQIIARGTGTLSIANAASLNYNLTNPVRRDTVVIPGGGYAVLRFSNDNPGVWVLHCHIAWHLAEGFLGLIVSNPNGIAALDYPDSIQALCNARPSGVSIDTTEPGRRKRGEIDTLIGGDIVKRGAMGSRWSRKRMINQRR
Km (purified protein [4]): 0.5 ± 0.05 mM
kcat (purified protein [4]): 122 ± 4 s⁻¹
Km (purified protein [5]): 20 ± 5 mM
kcat (purified protein [5]): 3.7 ± 0.4 s⁻¹
Km (purified protein [6]): 4 ± 0.6 mM
kcat (purified protein [6]): 428 ± 14 s⁻¹
Km (purified protein [7]): 1.6 ± 0.3 mM
kcat (purified protein [7]): 26 ± 2 s⁻¹
